Paper PMC6898792 (2019)

Key:
VEGFR2 (dimer) = VEGFR2 (dimer) (Homo sapiens, UniProt P35968); assay: global fit
VEGFR2 (monomer) = VEGFR2 (monomer) (Homo sapiens, UniProt P35968); assay: global fit
Chain of VEGFR2 (monomer) (P35968 20-1356): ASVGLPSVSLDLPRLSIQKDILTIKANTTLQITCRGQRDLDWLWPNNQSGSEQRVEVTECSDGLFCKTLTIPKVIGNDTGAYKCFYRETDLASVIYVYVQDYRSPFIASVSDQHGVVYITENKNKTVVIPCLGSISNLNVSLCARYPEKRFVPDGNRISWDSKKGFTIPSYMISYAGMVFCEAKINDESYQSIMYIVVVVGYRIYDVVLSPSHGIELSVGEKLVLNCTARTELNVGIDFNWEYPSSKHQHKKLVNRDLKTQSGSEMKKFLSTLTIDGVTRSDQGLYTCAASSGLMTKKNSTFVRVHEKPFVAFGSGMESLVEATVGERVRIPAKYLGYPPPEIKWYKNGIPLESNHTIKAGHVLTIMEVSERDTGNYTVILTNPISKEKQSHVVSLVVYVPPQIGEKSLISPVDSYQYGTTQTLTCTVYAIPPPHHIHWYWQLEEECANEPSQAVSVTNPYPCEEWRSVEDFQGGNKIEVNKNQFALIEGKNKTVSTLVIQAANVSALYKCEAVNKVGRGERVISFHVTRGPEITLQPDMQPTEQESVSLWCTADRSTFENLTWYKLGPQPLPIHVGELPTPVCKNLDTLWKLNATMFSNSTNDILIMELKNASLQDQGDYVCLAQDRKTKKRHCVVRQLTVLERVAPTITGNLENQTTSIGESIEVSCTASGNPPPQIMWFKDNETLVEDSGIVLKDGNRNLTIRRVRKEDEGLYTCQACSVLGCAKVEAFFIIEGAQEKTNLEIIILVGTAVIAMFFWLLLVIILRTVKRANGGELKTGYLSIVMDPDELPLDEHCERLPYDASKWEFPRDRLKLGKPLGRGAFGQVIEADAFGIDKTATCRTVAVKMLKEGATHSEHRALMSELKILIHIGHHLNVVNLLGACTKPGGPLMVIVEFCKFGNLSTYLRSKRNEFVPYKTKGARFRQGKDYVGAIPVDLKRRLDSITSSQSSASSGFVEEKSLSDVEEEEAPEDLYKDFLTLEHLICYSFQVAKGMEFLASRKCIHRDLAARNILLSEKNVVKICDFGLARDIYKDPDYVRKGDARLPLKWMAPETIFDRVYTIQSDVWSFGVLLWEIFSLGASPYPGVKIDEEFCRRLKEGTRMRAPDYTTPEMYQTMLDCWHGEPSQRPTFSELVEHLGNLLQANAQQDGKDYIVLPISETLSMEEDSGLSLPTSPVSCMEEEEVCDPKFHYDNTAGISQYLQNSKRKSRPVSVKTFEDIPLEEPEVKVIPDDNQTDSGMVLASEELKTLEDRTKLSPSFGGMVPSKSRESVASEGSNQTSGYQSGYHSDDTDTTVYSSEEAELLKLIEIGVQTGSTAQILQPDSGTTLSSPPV

Chain of VEGFR2 (dimer) (P35968 20-1356): as above

Kd (VEGFR2 (dimer)): 0.23 nM
Kd (VEGFR2 (monomer)): 10 nM
B1: VEGF (protein)
chain: MTDRQTDTAPSPSYHLLPGRRRTVDAAASRGQGPEPAPGGGVEGVGARGVALKLFVQLLGCSRFGGAVVRAGEAEPSGAARSASSGREEPQPEEGEEEEEKEEERGPQWRLGARKPGSWTGEAAVCADSAPAARAPQALARASGRGGRVARRGAEESGPPHSPSRRGSASRAGPGRASETMNFLLSWVHWSLALLLYLHHAKWSQAAPMAEGGGQNHHEVVKFMDVYQRSYCHPIETLVDIFQEYPDEIEYIFKPSCVPLMRCGGCCNDEGLECVPTEESNITMQIMRIKPHQGQHIGEMSFLQHNKCECRPKKDRARQEKKSVRGKGKGQKRKRKKSRYKSWSVPCGPCSERRKHLFVQDPQTCKCSCKNTDSRCKARQLELNERTCRCDKPRR
